The values that follow come from publication PMC6146392 (Metallomics : integrated biometal science, 2018).

Like-named read-outs stand apart in the source and are kept apart here.

Experiment in all cases: ITC
For experiment [1], the target named is S.c. Grx3 (residues 36-285, Trx-like and Grx-like domains) (S. cerevisiae).
The target is the same in experiment [2]. This is another data set of the same source.
Experiment [3] has as its target T1, H.s. GLRX5 lacking the first 31 amino acids (Δ1-31) (human, UniProt Q86SX6 32-157).
T1 sequence (looked up): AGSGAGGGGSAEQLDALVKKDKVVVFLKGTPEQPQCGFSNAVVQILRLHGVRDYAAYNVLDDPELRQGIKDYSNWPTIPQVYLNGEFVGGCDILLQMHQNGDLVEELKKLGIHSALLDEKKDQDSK

B1: human BOLA3 (residues 25-107, lacking the mitochondrial targeting sequence) (natural protein, UniProt Q53S33 25-107, looked up)
chain: MFATQTEGELRVTQILKEKFPRATAIKVTDISGGCGAMYEIKIESEEFKEKRTVQQHQMVNQALKEEIKEMHGLRIFTSVPKR
In experiment [1], B1 displayed a Ka of 150000 M⁻¹, a dH of -0.787 kcal/mol and a stoichiometry N of 0.98. Further, in experiment [2], the Kd amounted to 6.7 µM and the stoichiometry N came to 0.94. For the same molecule, in experiment [3], the Ka worked out at 120000 M⁻¹, the dH was -0.518 ± 0.0342 kcal/mol and the “stoichiometry N” value is 1.02 ± 0.05.
